Molecular target: sumf1_human SUMF1 (UniProt Q8NBK3)
Sequence (Q8NBK3 whole entry): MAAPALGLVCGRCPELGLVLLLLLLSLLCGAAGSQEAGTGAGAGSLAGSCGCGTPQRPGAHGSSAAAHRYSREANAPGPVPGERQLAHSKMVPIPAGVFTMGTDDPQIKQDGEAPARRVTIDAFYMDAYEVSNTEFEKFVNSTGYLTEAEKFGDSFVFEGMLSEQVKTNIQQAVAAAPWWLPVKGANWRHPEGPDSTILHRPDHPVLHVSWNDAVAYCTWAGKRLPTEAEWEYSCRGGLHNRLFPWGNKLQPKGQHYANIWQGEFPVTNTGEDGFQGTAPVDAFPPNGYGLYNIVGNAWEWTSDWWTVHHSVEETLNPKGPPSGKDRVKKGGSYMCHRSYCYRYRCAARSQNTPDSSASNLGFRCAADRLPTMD

Question: How did the “effect of a mutation on the interaction” value turn out when “Inactive C-alpha-formylglycine-generating enzyme 2 (Homo sapiens), Q8NBJ7 C156A;C290A” was run?
Answer: disrupting interaction strength

Source: IntAct's records for PubMed 15962010
